Test system: MS2 coat protein
Test: apparent KD of MS2 coat protein; designed switch direction (-1 OFF switch, 1 ON switch): 1; higher = weaker reporter binding
Method in brief: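 Designed RNA switches with common flanks were transcribed on Illumina chips by stalled E. coli RNA polymerase and titrated with SNAP-549-labelled MS2 coat protein, from 0.7 or 1.5 nM doubling to 3 µM, in Tris-HCl pH 7.5 buffer with KCl, MgCl2, BSA, DTT, tRNA and Tween-20. Steps lasted 0.8–1.5 h (lowest) to 10–20 min (highest). Titrations ran without input, with 200 uM small-molecule ligand, or with an oligonucleotide input. Normalised cluster fluorescence was curve-fitted, and apparent KD is the per-design median over clusters.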

[1] = input ligand: microRNA oligo, concentration not stated
[2] = Eterna round: R95, input ligand: microRNA oligo, concentration not stated
[3] = Eterna round: R95, input ligand: FMN 200 uM
[4] = Eterna round: R95, input ligand: none

Row | Sequence | apparent KD of MS2 coat protein (input ligand: FMN 200 uM) [nM] | apparent KD of MS2 coat protein [1] [nM] | apparent KD of MS2 coat protein (input ligand: none) [nM] | apparent KD of MS2 coat protein [2] [nM] | apparent KD of MS2 coat protein [3] [nM] | apparent KD of MS2 coat protein [4] [nM]
1 | UUGCUCGUGUGAGGAUAUGCCGCCGUUUCGGCUGCAGAAGGUACUCUUAUACAUGAGGAUCACCCAUGUCUCUGUUGUUUCGUG [salish99_SSNG1_r04_936] (Eterna round: R96, puzzle: Same State NG 1) | 97.9 | 65.3 | 98.2 |  |  | 
2 | UAAUUAAAGCAAGGAUAUCACGUCGAUUAGACGUGAGAAGGUGCUCCUUACAUGAGGAUCACCCAUGUAUAACAUGAAUAAUUA [SSNG1/10-B2] (Eterna round: R96, puzzle: Same State NG 1) | 169 | 522 | 792 |  |  | 
3 | UCGGGCGUACUUGCUGACAUGAGGAUCACCCAUGUCCUUGGGAAGGAUAUGGUUCCGUUUCGGUUCCAGAAGGUCCUGGCUGCU [salish99_SSNG3_r04_317] (Eterna round: R96, puzzle: Same State NG 3) | 30.1 | 42.6 | 78.2 |  |  | 
4 | CCGAUGAUAGGACAGGAUAUGACUGUCGUCACAUGAGGAUCACCCAUGUCCCGGCAAUGCCACCGUUAGAAGGGUCCUAUCUCGG [Orraais] (puzzle: Same State 2) |  |  |  | 11.9 |  | 
5 | GAGUGGAGGAGAGGAUAUACAAUGAUAAUCACAGUAGAAGGUUCUAACAUGAGGAUCACCCAUGUAGGACUAUUCCUGAGAGAA [Parity 49 - Jieux - Same State NG 1] (Eterna round: R96, puzzle: Same State NG 1) | 10.2 | 9.32 | 15.7 |  |  | 
6 | AGUCCAGCCUGAGCUGGACAAAGGCAUGUACAUGAGGAUCACCCAUGUCAUGUACAAGCUUUUUGCUCGUCUUAAAA [Zipper 46 - 1] (puzzle: Sensor for hsa-mir-208a) |  |  |  | 14.9 | 161 | 187
7 | AUAUACUGGGUAGGAUAUCUAGGAUAUGGGAAAGACUAAGUCUGUAGGUCACCUAACCCAGAUGGAGAGAAGGACCCAACACAC [pwkr ssNG2 2FMN + F9.42] (Eterna round: R96, puzzle: Same State NG 2) | 16.1 | 5.2 | 42.6 |  |  | 
8 | AUUAAACAUGAGGAUCACCCAUGUCAACAAAGUCGAGGAUAUGGGCAUAUUAUCUUAUAACCAGAAGGCGAAUAAU [salish99_ss1_r3_086] (puzzle: Same State 1) |  |  |  | 155 |  | 
9 | UUGAAGAAUUAAGGAUAUUGAGUACAUAUGUUAAACAUGAGGAUCACCCAUGUGGGUUGCGGUAUCGAGAAGGUAAAUUACUAG [Mat - same State NG 2 - JL mod - D68] (Eterna round: R96, puzzle: Same State NG 2) | 90.9 | 46.8 | 70.8 |  |  | 
10 | AUAAUUUAUGCAGGAUAUGAUUAACAUGAGGAUCACCCAUGUGGUGUUGUGAGUAAGGAGAGUGAUCAGAAGGGCAUUUUUUUU [JMF's solution 70] (Eterna round: R96, puzzle: Same State NG 2) | 734 | 391 | 400 |  |  | 
11 | AGCUAUUACGAAGGAUAUUCUGACAUGAGGAUCACCCAUGUCUUCAUGAUUUAUUGUGAUCACAUGAAGAAGGUUGUACUAACA [SameState NG2 #25] (Eterna round: R96, puzzle: Same State NG 2) | 106 | 130 | 93.1 |  |  | 
12 | GUUACAUGAGGAUCACCCAUGUAUGUGUGGGAGUAAGUGUCUUAGGAUAUCUAGUAUUUAAUUGAAGAGAAGGAAGAUUGUUGU [JMF's solution 67] (Eterna round: R96, puzzle: Same State NG 3) | 109 | 87.2 | 108 |  |  | 
13 | CCGUAAUAUGGAGGAUAUGGAGCCUUAUUGGCUCCAGAAGGUCAAAACACAUGAGGAUCACCCAUGUCGGCGGUCAAUAGACCG [Eli NG1ss - 75] (Eterna round: R96, puzzle: Same State NG 1) | 31.4 | 42.9 | 45.3 |  |  | 
14 | AGUAGGGCGUCAUAGGAUAUCCGGAAGAGUACAUGAGGAUCACCCAUGUCACUCCGCCAUGCAGAGGAGAAGGGUGGUGUUGUAC [Biedzage] (puzzle: Same State 2) |  |  |  | 36.6 | 77.6 | 41
15 | GAGGGACAUGAGGAUCACCCAUGUGGUAAAUUUAAAGGAUAUUAGUGUGGGAAAGUAGGGUAAGAAGGUUGAUUGG [JR_SS1_Sub086] (puzzle: Same State 1) |  |  |  | 87.7 |  | 
16 | UUGCGCUGUCGAGAGGAUAUGCGGUGUUGGACAUGAGGAUCACCCAUGUUUGCGAUAGCUUUACGGUAGAAGGCUCUUCAGCUGC [salish99_ss2_r3_099] (puzzle: Same State 2) |  |  |  | 45.8 |  | 
17 | UUGAUUAGAAGUUAACAUGAGGAUCACCCAUGUAUUGGAUCAGAGGAUAUGCAUGUUUGAUAGUAGCAGAAGGCUGAUGGUGGA [JR_SSNG3_Sub026] (Eterna round: R96, puzzle: Same State NG 3) |  | 39.8 |  |  |  | 
18 | UGCCUGAGUCGAGGAUAUUAUGGAUCAAUUAAUACAUGAGGAUCACCCAUGUAAUUAAUUUAACAUGAGAAGGUGACUCAGGCA [SSNG2/10-B2] (Eterna round: R96, puzzle: Same State NG 2) | 14.9 | 12.2 | 9.99 |  |  | 
19 | AUUACUAACAUAGGAUAUCAUGCGAAAAUUGCGUGAGAAGGGUGGACGCUGUCAUUCACGGAAGACAUGAGGAUCACCCAUGUC [SameState NG1 #73] (Eterna round: R96, puzzle: Same State NG 1) | 170 | 70.5 | 119 |  |  | 
20 | UGAAAACAUGAGGAUCACCCAUGUAUUAUUAUGGGAGGAUAUGGGAAUUAAUUAAUUAAACCAGAAGGCCUAAAGU [Mat - Same State 1 - D89] (puzzle: Same State 1) |  |  |  | 57.2 | 24.7 | 52.6
21 | ACAUGAGAGCGAGGAUAUAUUGUACCUACAUGUGACAUGAGGAUCACCCAUGUGGUAAGUAUGACAUAGAAGGCGCAGAUAUGU [Equivalance 91 - Jieux - Same State NG 2] (Eterna round: R96, puzzle: Same State NG 2) | 21.4 | 27.8 | 33.7 |  |  | 
22 | UAAAAUAACACAGGAUAUGCAGACAACUCGUCGGCAGAAGGGUGAGACAUGAGGAUCACCCAUGUAAAAUAAGGGCGCCGCCCG [Diatera] (Eterna round: R96, puzzle: Same State NG 1) | 995 | 219 | 777 |  |  | 
23 | GGUGCGAAAUAAGCCUACAUGAGGAUCACCCAUGUAUGUAGGCAGGAUAUCGUUUGCAAAGCAAACGAGAAGGGCUGACGCACC [Mat - Same State NG 3 - JL Mod - D50] (Eterna round: R96, puzzle: Same State NG 3) | 31.1 | 52.6 | 94.5 |  |  | 
24 | UUAUCUCAGACAUGAGGAUCACCCAUGUGGUUUUGACUUAGACAGGAUAUAGUAGUAUCGAAAUACUAGAAGGGUCAUUUUAUU [JR_SSNG3_Sub022] (Eterna round: R96, puzzle: Same State NG 3) | 91.3 | 99.5 | 125 |  |  | 
25 | CAUCGUUUGAUAGGAUAUCGCUAUACAUGAGGAUCACCCAUGUUUACCACGCUGGUUUUUCAUACCGAGAAGGAUUCUGAUGAG [salish99_SSNG02_r04_012] (Eterna round: R96, puzzle: Same State NG 2) | 55.3 | 38.3 | 47.6 |  |  | 
26 | AUCCCAUCGGGAGGAUAUGGAACCUUAUUGGUUCCAGAAGGUCCAACAUGAGGAUCACCCAUGUGGGAGUGGUCUAAUGACCAC [Fiskers NG1ss - 29] (Eterna round: R96, puzzle: Same State NG 1) | 222 | 272 | 470 |  |  | 
27 | CCAUAGUACAAUUUAGAUCUACAUGAGGAUCACCCAUGUACUGAGGAUAUCAGCUCGUUUAGAGCUGAGAAGGCAGAAGUACUU [SSNG3/6-A3] (Eterna round: R96, puzzle: Same State NG 3) | 34.2 | 64.8 | 102 |  |  | 
28 | UAUCGUUUGAUAGGAUAUCGCUAUACAUGAGGAUCACCCAUGUUUACCACGCUGGUUUUUCAUACCGAGAAGGAUUCUGAUGAG [salish99_SSNG02_r04_005] (Eterna round: R96, puzzle: Same State NG 2) | 36.3 | 33.2 | 42.2 |  |  | 
